In PMC10786891, “Massively parallel profiling of RNA-targeting CRISPR-Cas13d”:

T1: EsCas13d, nuclease-dead (Eubacterium siraeum, UniProt B0MS50, R295A;H300A;R849A;H854A)
T1 sequence: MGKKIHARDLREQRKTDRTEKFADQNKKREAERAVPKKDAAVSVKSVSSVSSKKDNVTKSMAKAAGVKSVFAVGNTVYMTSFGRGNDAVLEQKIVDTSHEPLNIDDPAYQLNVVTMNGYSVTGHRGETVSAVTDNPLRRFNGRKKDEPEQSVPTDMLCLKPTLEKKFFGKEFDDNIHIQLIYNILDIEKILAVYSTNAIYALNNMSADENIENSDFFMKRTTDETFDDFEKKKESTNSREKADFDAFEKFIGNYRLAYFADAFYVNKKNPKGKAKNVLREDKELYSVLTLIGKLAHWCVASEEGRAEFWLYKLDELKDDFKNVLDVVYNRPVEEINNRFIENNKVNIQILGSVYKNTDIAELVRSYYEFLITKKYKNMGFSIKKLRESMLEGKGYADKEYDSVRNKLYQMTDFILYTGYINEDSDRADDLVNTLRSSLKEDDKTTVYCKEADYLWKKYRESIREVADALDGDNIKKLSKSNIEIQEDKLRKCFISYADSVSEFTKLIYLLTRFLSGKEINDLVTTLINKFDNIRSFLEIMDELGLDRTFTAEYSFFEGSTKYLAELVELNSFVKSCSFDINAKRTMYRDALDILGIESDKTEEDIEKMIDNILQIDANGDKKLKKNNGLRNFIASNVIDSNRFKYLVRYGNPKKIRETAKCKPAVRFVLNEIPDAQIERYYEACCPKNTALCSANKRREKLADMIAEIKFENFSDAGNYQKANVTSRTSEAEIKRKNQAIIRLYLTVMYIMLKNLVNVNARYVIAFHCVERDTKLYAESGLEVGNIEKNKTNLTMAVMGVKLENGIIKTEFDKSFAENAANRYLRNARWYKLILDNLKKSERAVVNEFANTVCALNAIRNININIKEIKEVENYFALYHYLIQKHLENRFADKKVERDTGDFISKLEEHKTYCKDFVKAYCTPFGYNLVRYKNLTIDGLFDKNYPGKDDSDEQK

B1: target 1 insA 3' of 3,insU 3' of 2 (mixed)
RNA 1: CACCCGUGCAAAAAUGCAGGGGUCUAAAACUGAGCGGAUAACCUCUCUAUGG
RNA 2: GGGAAUGGAUCCACAUCUACGAAUUCGUACCAUAGAGAGGUUAUCCGCUACUACCGAGAUCGGAAGAGCACACGU
B2: target 1 G12A,G15A (mixed)
RNA 1: CACCCGUGCAAAAAUGCAGGGGUCUAAAACUGAGCGGAUAACCUCUCUAUGG
RNA 2: GGGAAUGGAUCCACAUCUACGAAUUCGUACCAUAGAAAGAUUAUCCGCUCACCGAGAUCGGAAGAGCACACGU
B3: target 1 insG 3' of 20,insC 3' of 15 (mixed)
RNA 1: CACCCGUGCAAAAAUGCAGGGGUCUAAAACUGAGCGGAUAACCUCUCUAUGG
RNA 2: GGGAAUGGAUCCACAUCUACGAAUUCGUACCAGUAGAGCAGGUUAUCCGCUCACCGAGAUCGGAAGAGCACACGU
B4: target 1 C4A,U8G (mixed)
RNA 1: CACCCGUGCAAAAAUGCAGGGGUCUAAAACUGAGCGGAUAACCUCUCUAUGG
RNA 2: GGGAAUGGAUCCACAUCUACGAAUUCGUACCAUAGAGAGGUUAGCCGAUCACCGAGAUCGGAAGAGCACACGU
B5: target 1 insA 3' of 2,insU 3' of 2 (mixed)
RNA 1: CACCCGUGCAAAAAUGCAGGGGUCUAAAACUGAGCGGAUAACCUCUCUAUGG
RNA 2: GGGAAUGGAUCCACAUCUACGAAUUCGUACCAUAGAGAGGUUAUCCGCUCAUACCGAGAUCGGAAGAGCACACGU
B6: target 1 complement block 8-10 (mixed)
RNA 1: CACCCGUGCAAAAAUGCAGGGGUCUAAAACUGAGCGGAUAACCUCUCUAUGG
RNA 2: GGGAAUGGAUCCACAUCUACGAAUUCGUACCAUAGAGAGGUAUACCGCUCACCGAGAUCGGAAGAGCACACGU
B7: target 1 G5C,G13C (mixed)
RNA 1: CACCCGUGCAAAAAUGCAGGGGUCUAAAACUGAGCGGAUAACCUCUCUAUGG
RNA 2: GGGAAUGGAUCCACAUCUACGAAUUCGUACCAUAGAGACGUUAUCCCCUCACCGAGAUCGGAAGAGCACACGU
B8: target 1 U8A,A14G (mixed)
RNA 1: CACCCGUGCAAAAAUGCAGGGGUCUAAAACUGAGCGGAUAACCUCUCUAUGG
RNA 2: GGGAAUGGAUCCACAUCUACGAAUUCGUACCAUAGAGGGGUUAACCGCUCACCGAGAUCGGAAGAGCACACGU
B9: target 1 insU 3' of 6,insU 3' of 1 (mixed)
RNA 1: CACCCGUGCAAAAAUGCAGGGGUCUAAAACUGAGCGGAUAACCUCUCUAUGG
RNA 2: GGGAAUGGAUCCACAUCUACGAAUUCGUACCAUAGAGAGGUUAUCCUGCUCAUCCGAGAUCGGAAGAGCACACGU
B10: target 1 C6A,G15U (mixed)
RNA 1: CACCCGUGCAAAAAUGCAGGGGUCUAAAACUGAGCGGAUAACCUCUCUAUGG
RNA 2: GGGAAUGGAUCCACAUCUACGAAUUCGUACCAUAGAUAGGUUAUCAGCUCACCGAGAUCGGAAGAGCACACGU
B11: target 1 G12C,A14G (mixed)
RNA 1: CACCCGUGCAAAAAUGCAGGGGUCUAAAACUGAGCGGAUAACCUCUCUAUGG
RNA 2: GGGAAUGGAUCCACAUCUACGAAUUCGUACCAUAGAGGGCUUAUCCGCUCACCGAGAUCGGAAGAGCACACGU
B12: target 1 U10G,G12U (mixed)
RNA 1: CACCCGUGCAAAAAUGCAGGGGUCUAAAACUGAGCGGAUAACCUCUCUAUGG
RNA 2: GGGAAUGGAUCCACAUCUACGAAUUCGUACCAUAGAGAGUUGAUCCGCUCACCGAGAUCGGAAGAGCACACGU
B13: target 1 G17A,A18G (mixed)
RNA 1: CACCCGUGCAAAAAUGCAGGGGUCUAAAACUGAGCGGAUAACCUCUCUAUGG
RNA 2: GGGAAUGGAUCCACAUCUACGAAUUCGUACCAUGAAGAGGUUAUCCGCUCACCGAGAUCGGAAGAGCACACGU
B14: target 1 insU 3' of 6,insA 3' of 2 (mixed)
RNA 1: CACCCGUGCAAAAAUGCAGGGGUCUAAAACUGAGCGGAUAACCUCUCUAUGG
RNA 2: GGGAAUGGAUCCACAUCUACGAAUUCGUACCAUAGAGAGGUUAUCCUGCUCAACCGAGAUCGGAAGAGCACACGU
B15: target 1 insA 3' of 11,insG 3' of 11 (mixed)
RNA 1: CACCCGUGCAAAAAUGCAGGGGUCUAAAACUGAGCGGAUAACCUCUCUAUGG
RNA 2: GGGAAUGGAUCCACAUCUACGAAUUCGUACCAUAGAGAGGUAGUAUCCGCUCACCGAGAUCGGAAGAGCACACGU
B16: target 1 G5C,U19A (mixed)
RNA 1: CACCCGUGCAAAAAUGCAGGGGUCUAAAACUGAGCGGAUAACCUCUCUAUGG
RNA 2: GGGAAUGGAUCCACAUCUACGAAUUCGUACCAAAGAGAGGUUAUCCCCUCACCGAGAUCGGAAGAGCACACGU
B17: target 1 U11G,A20U (mixed)
RNA 1: CACCCGUGCAAAAAUGCAGGGGUCUAAAACUGAGCGGAUAACCUCUCUAUGG
RNA 2: GGGAAUGGAUCCACAUCUACGAAUUCGUACCUUAGAGAGGGUAUCCGCUCACCGAGAUCGGAAGAGCACACGU
B18: target 1 insG 3' of 8,insA 3' of 5 (mixed)
RNA 1: CACCCGUGCAAAAAUGCAGGGGUCUAAAACUGAGCGGAUAACCUCUCUAUGG
RNA 2: GGGAAUGGAUCCACAUCUACGAAUUCGUACCAUAGAGAGGUUAUGCCGACUCACCGAGAUCGGAAGAGCACACGU
B19: target 1 del13,del19 (mixed)
RNA 1: CACCCGUGCAAAAAUGCAGGGGUCUAAAACUGAGCGGAUAACCUCUCUAUGG
RNA 2: GGGAAUGGAUCCACAUCUACGAAUUCGUACCAAGAGAGUUAUCCGCUCACCGAGAUCGGAAGAGCACACGU
B20: target 1 insA 3' of 22,insG 3' of 6 (mixed)
RNA 1: CACCCGUGCAAAAAUGCAGGGGUCUAAAACUGAGCGGAUAACCUCUCUAUGG
RNA 2: GGGAAUGGAUCCACAUCUACGAAUUCGUACACAUAGAGAGGUUAUCCGGCUCACCGAGAUCGGAAGAGCACACGU
B21: target 1 insU 3' of 6,insC 3' of 1 (mixed)
RNA 1: CACCCGUGCAAAAAUGCAGGGGUCUAAAACUGAGCGGAUAACCUCUCUAUGG
RNA 2: GGGAAUGGAUCCACAUCUACGAAUUCGUACCAUAGAGAGGUUAUCCUGCUCACCCGAGAUCGGAAGAGCACACGU
B22: target 1 insG 3' of 14,insG 3' of 10 (mixed)
RNA 1: CACCCGUGCAAAAAUGCAGGGGUCUAAAACUGAGCGGAUAACCUCUCUAUGG
RNA 2: GGGAAUGGAUCCACAUCUACGAAUUCGUACCAUAGAGAGGGUUGAUCCGCUCACCGAGAUCGGAAGAGCACACGU
B23: target 1 insC 3' of 20,insA 3' of 4 (mixed)
RNA 1: CACCCGUGCAAAAAUGCAGGGGUCUAAAACUGAGCGGAUAACCUCUCUAUGG
RNA 2: GGGAAUGGAUCCACAUCUACGAAUUCGUACCACUAGAGAGGUUAUCCGCAUCACCGAGAUCGGAAGAGCACACGU
B24: target 1 C2U,G13A (mixed)
RNA 1: CACCCGUGCAAAAAUGCAGGGGUCUAAAACUGAGCGGAUAACCUCUCUAUGG
RNA 2: GGGAAUGGAUCCACAUCUACGAAUUCGUACCAUAGAGAAGUUAUCCGCUUACCGAGAUCGGAAGAGCACACGU
B25: target 1 U3C,A9U (mixed)
RNA 1: CACCCGUGCAAAAAUGCAGGGGUCUAAAACUGAGCGGAUAACCUCUCUAUGG
RNA 2: GGGAAUGGAUCCACAUCUACGAAUUCGUACCAUAGAGAGGUUUUCCGCCCACCGAGAUCGGAAGAGCACACGU
B26: target 1 A9G,G12A (mixed)
RNA 1: CACCCGUGCAAAAAUGCAGGGGUCUAAAACUGAGCGGAUAACCUCUCUAUGG
RNA 2: GGGAAUGGAUCCACAUCUACGAAUUCGUACCAUAGAGAGAUUGUCCGCUCACCGAGAUCGGAAGAGCACACGU
B27: target 1 insA 3' of 17,insU 3' of 14 (mixed)
RNA 1: CACCCGUGCAAAAAUGCAGGGGUCUAAAACUGAGCGGAUAACCUCUCUAUGG
RNA 2: GGGAAUGGAUCCACAUCUACGAAUUCGUACCAUAGAAGAUGGUUAUCCGCUCACCGAGAUCGGAAGAGCACACGU
B28: target 1 C2G,G15A (mixed)
RNA 1: CACCCGUGCAAAAAUGCAGGGGUCUAAAACUGAGCGGAUAACCUCUCUAUGG
RNA 2: GGGAAUGGAUCCACAUCUACGAAUUCGUACCAUAGAAAGGUUAUCCGCUGACCGAGAUCGGAAGAGCACACGU

Each binder was assayed against T1, EsCas13d, nuclease-dead (assay: crRNA (strand 1, pre-loaded); Mg2+; 40 mM Tris-HCl pH 7.5, 150 mM NaCl, 6 mM MgCl2, 1 mM DTT, 0.1% Tween-20, 0.2 mg/ml BSA; 25 C; 10 min per concentration, then washed). Settings: tags: His6-TwinStrep-SUMO cleaved; N-terminal SNAP kept (SNAP-Surface 488); label: 3' end held by stalled T7 RNA polymerase.
For B1, the Kd was 9 ± 0.6 nM.
B2 gave a Kd of 20 ± 2.3 nM.
B3 was tested, and the Kd was 89 ± 33 nM.
Binder B4 has a Kd of 10.3 ± 0.7 nM.
For B5, the Kd was 12 ± 0.7 nM.
Binder B6 has a Kd of 30.9 ± 2.1 nM.
With B7 the Kd was 41 ± 5 nM.
In the case of B8, the Kd is reported as 31.1 ± 1.6 nM.
For B9, the Kd was 14.1 ± 1.4 nM.
Binder B10 has a Kd of 27.5 ± 1.6 nM.
B11 gave a Kd of 27.5 ± 3.1 nM.
Binder B12 has a Kd of 20 ± 4 nM.
In the case of B13, the Kd is reported as 81 ± 22 nM.
B14 gave a Kd of 12.8 ± 0.8 nM.
In the case of B15, the Kd is reported as 12.4 ± 0.4 nM.
In the case of B16, the Kd is reported as 34.1 ± 3 nM.
For B17, the Kd was 77 ± 24 nM.
In the case of B18, the Kd is reported as 11.5 ± 0.5 nM.
B19 showed a Kd of 80 ± 28 nM.
Binder B20 has a Kd of 17.4 ± 1.6 nM.
Binder B21 has a Kd of 11.7 ± 0.8 nM.
Binder B22 has a Kd of 16.7 ± 1 nM.
B23 gave a Kd of 6.4 ± 0.4 nM.
B24 showed a Kd of 5.7 ± 0.33 nM.
In the case of B25, the Kd is reported as 44 ± 6 nM.
Work on B26 yielded a Kd of 6.8 ± 0.5 nM.
Binder B27 has a Kd of 62 ± 11 nM.
In the case of B28, the Kd is reported as 14.2 ± 1.5 nM.
